Experimental findings from US10584169B2, “Anti-CD73 antibodies and uses thereof” (I-MAB BIOPHARMA US LIMITED, dated 2020) are described below.

The target of assay [1] is T1, Human CD73 on the cell surface (human).
T1 chain: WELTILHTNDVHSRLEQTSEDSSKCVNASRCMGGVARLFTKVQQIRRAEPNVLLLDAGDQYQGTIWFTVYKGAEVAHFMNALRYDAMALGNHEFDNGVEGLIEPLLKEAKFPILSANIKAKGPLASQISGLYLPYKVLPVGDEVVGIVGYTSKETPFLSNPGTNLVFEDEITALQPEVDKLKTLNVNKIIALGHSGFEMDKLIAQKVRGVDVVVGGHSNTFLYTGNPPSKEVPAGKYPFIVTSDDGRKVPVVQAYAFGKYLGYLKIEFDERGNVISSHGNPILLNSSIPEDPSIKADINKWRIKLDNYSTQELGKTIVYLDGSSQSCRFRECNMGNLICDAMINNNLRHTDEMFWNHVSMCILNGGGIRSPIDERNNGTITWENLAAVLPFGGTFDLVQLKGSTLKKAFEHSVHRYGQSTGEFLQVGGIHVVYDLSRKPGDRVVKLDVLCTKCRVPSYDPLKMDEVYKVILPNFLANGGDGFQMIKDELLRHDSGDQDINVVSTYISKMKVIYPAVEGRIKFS

Assay [2] has as its target T2, Recombinant human CD73 protein (human).
T2 chain: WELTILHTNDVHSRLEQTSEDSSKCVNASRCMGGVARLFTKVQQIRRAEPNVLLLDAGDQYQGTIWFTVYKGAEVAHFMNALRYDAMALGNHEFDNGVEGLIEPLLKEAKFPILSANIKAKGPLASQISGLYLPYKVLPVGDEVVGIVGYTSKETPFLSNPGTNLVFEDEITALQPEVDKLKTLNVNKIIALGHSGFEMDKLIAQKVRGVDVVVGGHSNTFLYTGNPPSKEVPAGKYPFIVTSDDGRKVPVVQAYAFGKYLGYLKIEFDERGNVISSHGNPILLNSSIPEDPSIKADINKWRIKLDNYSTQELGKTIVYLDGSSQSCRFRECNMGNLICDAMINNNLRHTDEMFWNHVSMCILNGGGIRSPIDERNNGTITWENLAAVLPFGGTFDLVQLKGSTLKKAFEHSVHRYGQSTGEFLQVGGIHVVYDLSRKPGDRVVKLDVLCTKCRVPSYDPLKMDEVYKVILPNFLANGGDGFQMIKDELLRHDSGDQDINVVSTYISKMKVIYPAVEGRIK
Description: Biacore T200, antibody captured by anti-human Fc IgG, antigen as analyte, 1:1 model. On the procedure: For the binding assay, the Biacore T200 system was used through human antibody capture approach. The anti-human Fc IgG were immobilized on CM5 sensor chip according to the manufactory's instruction. The test antibody was injected and captured by the immobilized anti-human Fc IgG. And then serial concentrations of antigen was individually injected, and the binding profile was recorded for each concentration antigen analyte, respectively. The assay system was regenerated by injection of 10 mM Glycine-HCl pH 1.5 for 30 seconds. The running buffer was HBS-EP+ (10 mM HEPES, pH 7.4, 150 mM NaCl, 3 mM EDTA and 0.05% P20). The assay temperature was 25° C., and the association and dissociation time were 180 and 600 seconds, respectively.
A general note: Surface plasmon resonance follows binding to a sensor surface in real time, without labels.

The target of assay [3] is T1, Human CD73 on the cell surface. Description: flow cytometry on SK-OV-3 cells. On the procedure:
Human ovarian cancer cell line (SK-OV-3 cells) which endogenously expressed human CD73 on the surface were stained with different concentrations of IgG control, chimeric anti-CD73 (101-Mu-Chimeric, or 101-Chi) and humanized anti-CD73 antibodies (Hu101-25 and Hu101-28) at […] for 30 mins. Then, the cells were washed with PBS three times, followed by incubation with APC-labeled anti-human Fc specific antibody (Invitrogen) at 4° C. for 30 mins. Binding was measured using an FACSCanto (Becton-Dickinson), and the results are presented in FIG. 8 (see also the table below).
A general note: In flow cytometry, cells or beads pass a laser one at a time.

The target in assay [4] is T2, Recombinant human CD73 protein.
Assay [5] concerns the target T1, Human CD73 on the cell surface. The assay is described as follows: flow cytometry on SK-OV-3 cells.
For assay [6] the target is unchanged.
Assay [7] has as its target T2, Recombinant human CD73 protein.
For assay [8] the target is unchanged. The assay is described as follows: ELISA with recombinant human CD73 (2 µg/ml). Background: An ELISA detects its analyte on a solid surface through an enzyme-linked reagent.
Assay [9] shares this target. The assay is described as follows: Biacore T200, antibody captured, recombinant human CD73 as analyte, 1:1 model. On the procedure: FIG. 3 plots the binding kinetics of 101-Mu and mAb1 with recombinant human CD73 (recombinant human CD73 was set as an analyte with serial concentrations (100, 50, 25, 12.5, 6.25, 3.125 nM)). The binding kinetics assay of antibody to antigen was performed using Biacore T200 system through a human antibody capture approach. The […] were immobilized on CM5 sensor chip according to the manufactory's instruction. The test antibody was injected and captured by the immobilized anti-human Fc IgG. And then serial concentrations of the antigen was individually injected, and the binding profile was recorded for each concentration antigen analyte, respectively. The assay system was regenerated by injection of 10 mM Glycine-HCl pH 1.5 for 30 seconds. The running buffer was HBS-EP+ (10 mM HEPES, pH 7.4, 150 mM NaCl, 3 mM EDTA and 0.05% P20). The assay temperature was 25° C., and the association and dissociation time were 180 and 600 seconds, respectively.

Assay [10] has as its target T1, Human CD73 on the cell surface.
In assay [11] the target is T2, Recombinant human CD73 protein. The assay is described as follows: ELISA, plate-coated recombinant human CD73.
Assay [12] shares this target.

Positions count from the first letter of the chain named. Read-outs that look alike come from different tables or passages of the source.

B1: Hu101-25 (antibody, V domains shown)
VH: EVQLQESGPGLVKPSETLSLTCAVSGYSISSGYYWNWIRQPPGKGLEWIGYINYGGSNGYNPSLKSRVTISRDTSKNQFSLKLSSVTAADTAVYYCARDYDAYYEALDDWGQGTTVTVSS
VL: EIVLSQSPATLSLSPGERATLSCRASSRVNYMHWYQQKPGQSPRPWISATSNLASGVPARFSGSGSGTSYTLTISSLEPEDFAVYYCQQWSSNPPTFGGGTKVEIK
In assay [1], B1 showed an IC50 (nM), inhibition of cellular CD73 enzyme activity on SK-OV-3 cells of 2.98 nM and a Max. Inhibition (%), cellular CD73 enzyme activity on SK-OV-3 cells of 100%. Besides, in assay [2], the Kd – broadly, a measure of binding affinity in units of concentration – was 0.747 nM; the koff (usually the first-order rate constant of dissociation) came to 5.51e-05 s⁻¹; the kon (in general, a measure of how fast the partners come together) came out at 73700 M⁻¹ s⁻¹. A half-maximal response in [3] (EC50) required 2.38 nM. In [4], the IC50 (nM), inhibition of recombinant human CD73 enzymatic activity is 4.72 nM and the Max. Inhibition (%), recombinant human CD73 enzymatic activity is 99%.

B2: Hu101-28 (antibody, V domains shown)
VH: B1 VH with S30T, G45K, I49M, V68I
VL: B1 VL
In [1], B2 displayed an IC50 (nM), inhibition of cellular CD73 enzyme activity on SK-OV-3 cells of 2.52 nM and a Max. Inhibition (%), cellular CD73 enzyme activity on SK-OV-3 cells of 100%. Further, the EC50 (in general, the midpoint of the concentration-response curve) in assay [5] was 0.67 nM. Besides, in [6], the IC50 of inhibition of cell-bound CD73 activity on MDA-MB-231 cells (CellTiter-Glo) is 8.21 nM and the IC50 of inhibition of cell-bound CD73 activity on SK-OV-3 cells (CellTiter-Glo) worked out at 2.52 nM. Further, the IC50 of inhibition of recombinant human CD73 activity (CellTiter-Glo) in assay [7] amounted to 2.84 nM. Moreover, the EC50 in assay [8] amounted to 0.0887 nM. Besides, the EC50 in [3] turned out to be 1.35 nM. In addition, in assay [4], the IC50 (nM), inhibition of recombinant human CD73 enzymatic activity stood at 9.35 nM and the Max. Inhibition (%), recombinant human CD73 enzymatic activity was 98%.

B3: 101-Mu (antibody, V domains shown)
VH: DVQLQESGPGLVKPSQSLSLTCSVTGYSITSGYYWNWIRQFPGNKLEWMGYINYGGSNGYNPSLKSRISITRDTSKNQFFLKLNSVTTEDTATYYCARDYDAYYEALDDWGQGTSVTVSS
VL: QIVLSQSPAILSASPGEKVTMTCRASSRVNYMHWYQQKPGSSPKPWISATSNLASGVPARFSGSGSGTSYSLTISRVETEDAATYYCQQWSSNPPTFGGGTKLEIK
Regarding B3, in [9], the Kd is 0.421 nM, the koff is 3.42e-05 s⁻¹ and the kon is 81300 M⁻¹ s⁻¹. Moreover, the response in assay [5] was half-maximal at 0.54 nM (EC50). This molecule also registered an IC50 of inhibition of cellular CD73 enzyme activity on SK-OV-3 cells (CellTiter-Glo luminescence) in assay [10] of 4.62 nM. Also, the EC50 in assay [11] stood at 0.08 nM. The IC50 of inhibition of CD73 enzymatic activity (CellTiter-Glo luminescence, residual CD73 activity) in assay [12] was 3.89 nM.

B4: 101-Mu chimera (antibody, V domains shown)
VH: B3 VH
VL: B3 VL
In [1], B4 returned an IC50 (nM), inhibition of cellular CD73 enzyme activity on SK-OV-3 cells of 1.82 nM and a Max. Inhibition (%), cellular CD73 enzyme activity on SK-OV-3 cells of 100%. The molecule further displayed an EC50 in assay [3] of 1.35 nM. Besides, in [4], the IC50 (nM), inhibition of recombinant human CD73 enzymatic activity came to 4.25 nM and the Max. Inhibition (%), recombinant human CD73 enzymatic activity stood at 98%.
